Assay results as given in the supplement of paper PMC10126150.
± gives the standard deviation of the averaged measurements.

System: ATP
Assay: switch fluorescence ratio, 500 uM ATP over buffer (Cy3 cluster intensity, sum of 5 cycles each) (fold (ratio)); higher = stronger signal-on switching upon ATP binding; sequences stand for … in TCGTCGGCAGCGTCAGATGTGTATAAGAGACAGTTTTTTTTTTTTTTTTTTTTTTTTT…TC
Conditions: aptamer strand: ATP DNA aptamer (quencher-CACCTGGGGGAGTATTGCGGAGGAAGG + anchor), 100 nM annealed; ATP concentration: 500 uM
How it was run: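 Clusters with intensities outside 100-1000 RFU were excluded. The remaining Cy3-labelled switching-strand clusters on a modified Illumina MiSeq flow-cell had been annealed to 100 nM quencher-labelled ATP aptamer and imaged in selection buffer, then after 15 min with 500 uM ATP at 22 °C, for five cycles separated by NaOH stripping and re-annealing. The fluorescence ratio, averaged per switch-domain sequence, is each cluster's summed target-cycle Cy3 intensity over its summed buffer-cycle Cy3 intensity.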
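Also: ATP exposure 15 min at 22 °C before imaging.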

Sequence	switch fluorescence ratio
AATGTGGCGC	0.9643 ± 0.0043
GGAACATCTG	1.007 ± 0.0071
CCATCGGCTG	1.06 ± 0.038
GCATGTGGGT	0.986 ± 0.017
TTTTAAGTGT	1 ± 0.045
ACGAAGGATA	1.04 ± 0.014
ATAGGGTGCT	1.04 ± 0.027
TTAAACGTTT	1.02 ± 0.021
TTGGTTGGTG	1.03 ± 0.11
TTTAGGGGGC	1.03 ± 0.032
ATGATGTGGG	1.011 ± 0.0087
GGACGGGAAC	1.13 ± 0.055
GCATAGGGCG	1.01 ± 0.018
TTTATTTTTT	1 ± 0.039
GGGGGTTCAG	0.978 ± 0.04
CTAATCATAA	1 ± 0.052
CGGGAGGGGT	1.06 ± 0.14
CGCTCTTGGA	0.976 ± 0.031
TTCCATTGTA	1.02 ± 0.031
GATCTGCCTG	0.985 ± 0.029
TATTGCTTTC	1.03 ± 0.018
TACGTTGAAA	1.17 ± 0.19
TTGTCAGACT	0.9801 ± 0.0028
GAGGGGGTGC	1.04 ± 0.069
AGCCAGGGGG	1.03 ± 0.043

Sequence	switch fluorescence ratio
TACGAATAAT	1.1 ± 0.075
TGTAGAAAGG	1.03 ± 0.046
GGGGTATGTA	0.987 ± 0.055
TTTATGTTAT	1.1 ± 0.097
GAGTTTTGCG	1.03 ± 0.093
GGGGTTGCTG	1 ± 0.024
GGGGCACTGG	1.03 ± 0.028
CCAGGGTCGC	0.9965 ± 0.0067
CTAACTGCAT	1.18 ± 0.031
GGGGACCAGT	0.9845 ± 0.0031
TATACTGGGA	0.995 ± 0.012
TTTAGGCAAA	1.05 ± 0.12
CGGGAAGGCT	1.06 ± 0.13
GAGTGGGTAG	1.03 ± 0.025
TAGGATGCAC	1.014 ± 0.0033
GAGATTGGTT	1.007 ± 0.0072
ATCGGGGAGG	1.01 ± 0.0081
TAAATTATGT	0.9816 ± 0.0076
GGCTTGGAAA	0.973 ± 0.011
ATCCTTTAAC	1 ± 0.032
CAAGGAGGGT	0.9726 ± 0.0079
CGCTACGTGG	0.99 ± 0.028
CCTGGAGCGG	1.19 ± 0.037
AGAAAAATTT	1.19 ± 0.29
TACGAGGGTG	1.06 ± 0.034

Sequence	switch fluorescence ratio
GCTATTGGAT	1.01 ± 0.02
TCGGACGTAC	1.98 ± 0.16
TAGGGGCTG	1.01 ± 0.015
TTTCTAACGT	1.001 ± 0.0026
GGCGCCGGGC	1.02 ± 0.022
TGATATAAGC	1.03 ± 0.015
ATCGAGTAGG	1.008 ± 0.005
TTATGTCGAG	0.978 ± 0.034
GAAGAGAGGT	0.9901 ± 0.0037
AGGAATCCGT	1.03 ± 0.022
CAGTGCGCTT	1.1 ± 0.085
AGACTTCCGG	0.969 ± 0.048
TTGGTGGGGC	0.98 ± 0.02
TCTTCCGGTG	1.68 ± 0.045
GATGGATCGG	1.01 ± 0.017
AACTAATTCA	0.99298 ± 0.00078
GGGTAATGCA	1.033 ± 0.0053
AATGGTCGTG	0.998 ± 0.02
TTCATAGTAC	1.2 ± 0.22
TTAGTTGAGA	1 ± 0.045
TCGGCTTTTT	0.999 ± 0.025
GGGTAAGCCG	0.918 ± 0.02
TTTTGTGTTC	0.993 ± 0.027
GCTCTATGTG	1.01 ± 0.018
AAAATGTTCC	1.19 ± 0.025

Sequence	switch fluorescence ratio
TGAGGTTTGA	0.986 ± 0.02
TTTGAAGACT	0.98 ± 0.028
AAACGGAG	1.007 ± 0.0081
GGGGGTGAGT	1.02 ± 0.012
CTTTACAGGG	1 ± 0.064
TTTCGTGCGG	1 ± 0.015
GGGGGAAGAT	1.01 ± 0.074
TGGTGGGAGG	1 ± 0.015
ACAGCGTTTG	0.983 ± 0.03
TTGGGTAATA	1.05 ± 0.087
TGAGGTAACG	0.992 ± 0.029
TTTGAAAGTT	1.01 ± 0.015
GCGCTTTTGG	0.986 ± 0.048
ATTATAGTTG	1.039 ± 0.0094
GGGAATACTA	1.38 ± 0.37
AGAGGCTTGG	0.997 ± 0.014
AGATGGCATG	0.987 ± 0.019
GAAGTTCAGG	1.03 ± 0.018
TTACGACGCA	3.67 ± 0.76
CAAATGTTAT	1.02 ± 0.0088
GTATTTTTTG	0.9958 ± 0.0069
GACGTATAG	0.994 ± 0.022
TCATAGTATG	0.982 ± 0.04
GCTGGGTCTT	1.03 ± 0.023
GCGAGAGGGA	1.01 ± 0.013
